Results taken from patent publication US12221480.

B1: δ3-58 (antibody, V domains shown)
VH: EVKLVESGGGLVQPGGSLKLSCAASGFTFSSYAMSWVRQTPEKRLEWVAYIRDGGGGTYYPDTVEGRFTISRDNAKNTLYLQMSSLKSEDTAMYYCARHPPMNDWFLYWGQGTLVTVSA
VL: DIQMTQSPASLSVSVGETVTITCRASENIYSHLAWYQQKQGKSPQLLVYAATNLADGVPSRFSGSGSGTQYSLKINSLQSEDFGSYYCQHFWGTPYTFGGGTKLEIKR
B2: δ3-42 (antibody, V domains shown)
VH: DVQLQESGPDLVKPSQSLSLTCTVTGYSITSGYNWHWIRQFPGNKLEWMGYIHYSGNTDYNPSLRSRISITRDTSKNQFFLHLNSVPTEDTATYYCARSGITTDWYFDVWGAGTTVTVSS
VL: QIVLSQSPAILSASPGEKVTMTCRASSSVNYMHWYQQKPGSSPKPWIYATSNLASGVPARFSGSGSGTSYSLTISKVEAEDAATYYCQQWSSHQPTFGAGTKLELK
B3: δ3-23 (antibody, V domains shown)
VH: EVQLQQSGAELVKPGASVKLSCTASGFNIRDTYMHWVKQRPEQGLEWIGRIDPANGNTKYDPKFRGKATITADTSSNTAYLQLSSLTSEGTAVYYCSEGIYFDYWGQGTTLTVSS
VL: DILLTQSPAILSVSPGERVSFSCRASQNIGTIIHWYQQRANGSPRLLIKYASESISGIPSRFSGSGSGTDFTLSINSVESEDIADYYCQQSNSWPYTFGGGTKLEIKR
B4: δ3-08 (antibody, V domains shown)
VH: EEKLEESGGGLVQPGGSMKLSCVASGFIFSIYWMNWVRQSPEKGLEWVGQIRLKSDNYATHYAESVKGRFTISRDDSKSSVYLQMNNLRAEDTGIYYCMYYGSSYERFAYWGQGTLVTVSA
VL: DIQMIQSPASLSVSVGETVTITCRASENIYSNLAWYQQKQGKSPQLLVYVATKLADGVPSRFSGSGSGTQYSLKINSLQSEDFGSYYCQHFWGTPPWTFGGGTKLEIK

Experiments:
[1] = biological target: anti-CD20 (Rituxan) chimeric antigen receptor ACT2; experiment: flow cytometry, panel Donor 4 (δ3-08): cells transduced with the anti-CD20 CAR ACT2, stained with rat anti-Rituximab-FITC; no % sign is printed
[2] = biological target: anti-CD20 (Rituxan) chimeric antigen receptor ACT2; experiment: flow cytometry, panel Donor 4 (δ3-23): cells transduced with the anti-CD20 CAR ACT2, stained with rat anti-Rituximab-FITC; no % sign is printed
[3] = biological target: anti-CD20 (Rituxan) chimeric antigen receptor ACT2; experiment: flow cytometry, panel Donor 3 (δ3-23): cells transduced with the anti-CD20 CAR ACT2, stained with rat anti-Rituximab-FITC; no % sign is printed
[4] = biological target: recombinant human soluble γ2 δ3TCR-FC (wild type) (human) (UniProt B7Z8K6); experiment: Octet, γ2δ3TCR-hFc captured on anti-human Fc biosensor; row antibody δ3-31 taken as first (saturating), column antibody as second; 5 µg/mL each
[5] = biological target: recombinant human soluble γ2 δ3TCR-FC (wild type) (human) (UniProt B7Z8K6); experiment: Octet, γ2δ3TCR-hFc captured on anti-human Fc biosensor; row antibody δ3-42 taken as first (saturating), column antibody as second; 5 µg/mL each
[6] = biological target: recombinant human soluble γ2 δ3TCR-FC (wild type) (human) (UniProt B7Z8K6); experiment: Octet, γ2δ3TCR-hFc captured on anti-human Fc biosensor; row antibody δ3-58 taken as first (saturating), column antibody as second; 5 µg/mL each; self pair
[7] = biological target: γ2δ3 TCR-hFc mutant S3 (K79L, H88F in the Vδ3 chain) (human) (UniProt B7Z8K6); experiment: Luminex beads; TCR-hFc captured by goat anti-human Fc; antibody titrated; extrapolated value, no saturation achieved
[8] = biological target: γ2δ3 TCR-hFc mutant S11 (K79L, L82K, H88F in the Vδ3 chain) (human) (UniProt B7Z8K6); experiment: as above
[9] = biological target: γ2δ3 TCR-hFc mutant S10 (K3A, K79L, H88T in the Vδ3 chain) (human) (UniProt B7Z8K6); experiment: as above
[10] = biological target: γ2δ3 TCR-hFc mutant S8 (K79L, E18Q, H88F in the Vδ3 chain) (human) (UniProt B7Z8K6); experiment: as above
[11] = biological target: recombinant human soluble γ2 δ3TCR-FC (wild type) (human) (UniProt B7Z8K6); experiment: Octet, γ2δ3TCR-hFc captured on anti-human Fc biosensor; row antibody δ3-23 taken as first (saturating), column antibody as second; 5 µg/mL each
[12] = biological target: γ2δ3 TCR-hFc mutant S2 (D26N, K85L in the Vδ3 chain) (human) (UniProt B7Z8K6); experiment: Luminex beads; TCR-hFc captured by goat anti-human Fc; antibody titrated
[13] = biological target: γ2δ3 TCR-hFc mutant S6 (R75Q, R95Q in the Vδ3 chain) (human) (UniProt B7Z8K6); experiment: as above
[14] = biological target: γ2δ3 TCR-hFc mutant S9 (E67Q, D70N, R75Q, R95Q, E97Q in the Vδ3 chain) (human) (UniProt B7Z8K6); experiment: as above
[15] = biological target: γ2δ3 TCR-hFc mutant S5 (D70N, E67Q in the Vδ3 chain) (human) (UniProt B7Z8K6); experiment: as above
[16] = biological target: γ2δ3 TCR-hFc mutant S1 (D10N in the Vδ3 chain) (human) (UniProt B7Z8K6); experiment: as above
[17] = biological target: recombinant human soluble γ2 δ3TCR-FC (wild type) (human) (UniProt B7Z8K6); experiment: as above
[18] = biological target: γ2δ3 TCR-hFc mutant S7 (D57N, R65Q in the Vδ3 chain) (human) (UniProt B7Z8K6); experiment: as above
[19] = biological target: γ2δ3 TCR-hFc mutant S4 (E18Q in the Vδ3 chain) (human) (UniProt B7Z8K6); experiment: as above
[20] = biological target: recombinant human soluble γ2 δ3TCR-FC (wild type) (human) (UniProt B7Z8K6); experiment: Octet, γ2δ3TCR-hFc captured on anti-human Fc biosensor; row antibody δ3-08 taken as first (saturating), column antibody as second; 5 µg/mL each
[21] = biological target: γ2δ3 TCR-hFc mutant S9 (E67Q, D70N, R75Q, R95Q, E97Q in the Vδ3 chain) (human) (UniProt B7Z8K6); experiment: Luminex beads; TCR-hFc captured by goat anti-human Fc; antibody titrated; extrapolated value, no saturation achieved
[22] = biological target: recombinant human soluble γ2 δ3TCR-FC (wild type) (human) (UniProt B7Z8K6); experiment: Octet, γ2δ3TCR-hFc captured on anti-human Fc biosensor; row antibody δ3-58 taken as first (saturating), column antibody as second; 5 µg/mL each
[23] = biological target: recombinant human soluble γ2 δ3TCR-FC (wild type) (human) (UniProt B7Z8K6); experiment: Octet, γ2δ3TCR-hFc captured on anti-human Fc biosensor; row antibody δ3-42 taken as first (saturating), column antibody as second; 5 µg/mL each; self pair
[24] = biological target: Vδ3 γδ TCR on the surface of human Vδ3 γδ T cells (PBMC-derived, expanded cultures) (human) (UniProt A0JD37); experiment: flow cytometry on expanded, αβ T cell depleted γδ T cells of Donor 4
[25] = biological target: recombinant human soluble γ2 δ3TCR-FC (wild type) (human) (UniProt B7Z8K6); experiment: Octet, γ2δ3TCR-hFc captured on anti-human Fc biosensor; row antibody δ3-23 taken as first (saturating), column antibody as second; 5 µg/mL each; self pair
[26] = biological target: Vδ3 γδ TCR on the surface of human Vδ3 γδ T cells (PBMC-derived, expanded cultures) (human) (UniProt A0JD37); experiment: flow cytometry, upper right panel (δ3-08 Expansion): untransduced Donor 4 cells after αβ T cell depletion, δ3-23 MAb staining (x axis) against anti-TCRαβ (y axis); the gated population lies between about 10^4 and 10^5 on the δ3-23 axis; no % sign is printed
[27] = biological target: Vδ3 γδ TCR on the surface of human Vδ3 γδ T cells (PBMC-derived, expanded cultures) (human) (UniProt A0JD37); experiment: cell-based or functional assay
[28] = biological target: Vδ3 γδ TCR on the surface of human Vδ3 γδ T cells (PBMC-derived, expanded cultures) (human) (UniProt A0JD37); experiment: flow cytometry, lower right panel (δ3-23 Expansion): untransduced Donor 4 cells after αβ T cell depletion, δ3-23 MAb staining (x axis) against anti-TCRαβ (y axis); the gated population lies between about 10^4 and 10^5 on the δ3-23 axis; no % sign is printed
[29] = biological target: recombinant human soluble γ2 δ3TCR-FC (wild type) (human) (UniProt B7Z8K6); experiment: Octet, γ2δ3TCR-hFc captured on anti-human Fc biosensor; row antibody δ3-08 taken as first (saturating), column antibody as second; 5 µg/mL each; self pair
[30] = biological target: γ2δ3 TCR-hFc mutant S3 (K79L, H88F in the Vδ3 chain) (human) (UniProt B7Z8K6); experiment: Luminex beads; TCR-hFc captured by goat anti-human Fc; antibody titrated
[31] = biological target: γ2δ3 TCR-hFc mutant S11 (K79L, L82K, H88F in the Vδ3 chain) (human) (UniProt B7Z8K6); experiment: as above
[32] = biological target: γ2δ3 TCR-hFc mutant S10 (K3A, K79L, H88T in the Vδ3 chain) (human) (UniProt B7Z8K6); experiment: as above
[33] = biological target: γ2δ3 TCR-hFc mutant S8 (K79L, E18Q, H88F in the Vδ3 chain) (human) (UniProt B7Z8K6); experiment: as above

Chain of UniProt A0JD37 (A0JD37 19-113, stated change not applied): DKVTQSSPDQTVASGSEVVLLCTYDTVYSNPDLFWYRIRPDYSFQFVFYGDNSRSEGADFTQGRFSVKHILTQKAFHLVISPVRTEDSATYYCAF

| Molecule | paired-competition value (Octet signal of the second antibody per paragraph 256) [4] | paired-competition value (Octet signal of the second antibody per paragraph 256) [5] | EC50 [7] [nM] | EC50 [8] [nM] | EC50 [9] [nM] | EC50 [10] [nM] | paired-competition value (Octet signal of the second antibody per paragraph 256) [11] | EC50 [12] [nM] | EC50 [13] [nM] | EC50 [14] [nM] | EC50 [15] [nM] | EC50 [16] [nM] | EC50 [17] [nM] | EC50 [18] [nM] | EC50 [19] [nM] | paired-competition value (Octet signal of the second antibody per paragraph 256) [20] | paired-competition value (Octet signal of the second antibody per paragraph 256) [22] | also measured |
| --- | --- | --- | --- | --- | --- | --- | --- | --- | --- | --- | --- | --- | --- | --- | --- | --- | --- | --- |
| aRitxmab-FITC (antibody) |  |  |  |  |  |  |  |  |  |  |  |  |  |  |  |  |  | percent of cells in the CAR+ gate [1]: 70.7%; percent of cells in the CAR+ gate [2]: 73.5%; percent of cells in the CAR+ gate [3]: 83.1% |
| B1 | 0.37 | 0.06 | 508 | 136 | 336 | 3370 | 0.03 | 0.03 | 0.02 | 0.05 | 0.02 | 0.02 | 0.03 | 0.04 | 0.02 | 0.22 |  | paired-competition value (Octet signal of the second antibody per paragraph 256) [6]: 0.03 |
| B2 | 0.35 |  | 106 | 199 | 449 | 258 | 0.04 | 0.17 | 0.13 |  | 0.08 | 0.07 | 0.05 | 0.15 | 0.05 | 0.21 | 0.03 | EC50 [21]: 49.3 nM; paired-competition value (Octet signal of the second antibody per paragraph 256) [23]: 0.04 |
| B3 | 0.48 | 0.12 | 137 | 112 | 117 | 95.8 |  | 0.04 | 0.04 | 0.05 | 0.04 | 0.04 | 0.04 | 0.04 | 0.06 | 0.29 | 0.07 | % of non-Vδ1/non-Vδ2 cells stained positive [24]: > 95%; paired-competition value (Octet signal of the second antibody per paragraph 256) [25]: 0.06; percent of cells in the Vd3+ gate [26]: 95.5%; share of non-Vδ1/non-Vδ2 γδ T cells in the culture on Day 21, Donor 1 [27]: < 41%; percent of cells in the Vd3+ gate [28]: 95% |
| B4 | 0.24 |  |  |  |  |  | 0.04 | 0.07 | 0.06 | 0.07 | 0.05 | 0.08 | 0.06 | 0.07 | 0.06 |  | 0.04 | paired-competition value (Octet signal of the second antibody per paragraph 256) [29]: 0.16; EC50 [30]: 0.05 nM; EC50 [31]: 0.03 nM; EC50 [32]: 2.5 nM; EC50 [33]: 0.04 nM |
